From US20200369755A1 (PROTHENA BIOSCIENCES, published 2020) come the findings set out here.

Experiment [1] has as its target biotinylated recombinant tau (UniProt P10636-6 1-383, limits assumed, biotinylated). The experiment in a line: competition ELISA: inhibition of biotinylated tau binding to plate-bound low molecular weight heparin. The procedure: To test the ability of murine and humanized 3D6 variants to interrupt tau interaction with heparin, ELISA plates coated with low molecular weight heparin were first blocked with 2% BSA in PBS for 2h at room temperature. Plates were washed with TBST. After blocking, plates were incubated with biotinylated recombinant tau along with indicated concentrations of unlabeled antibody in 1% BSA/PBS for one hour at room temperature. Plates were again washed, and then incubated with streptavidin-HRP in 0.1% BSA/PBS for 45 min. Plates were then washed and developed with OPD, and absorbance was measured at 490 nm. Inhibition curves were analyzed using a 4-parameter log fit.
A general note: In an ELISA, binding on a coated surface is turned into a signal by an enzyme label.

The target of experiment [2] is T1, mixed fibrils of 3-repeat and 4-repeat tau (UniProt P10636 1-352; P10636 1-383, limits assumed).
T1 construct: Made by seeded growth of 3-repeat and 4-repeat tau; also called fibrils containing both 3R and 4R tau
Put plainly: ELISA on plates coated with preformed mixed 3R/4R tau fibrils, biotinylated antibody, streptavidin-HRP, OPD, A490 [binding to mixed fibrils]. As for the experimental part: (§1) ELISA plates were coated with preformed fibrils (overnight at 4° C. in 50 mM carbonate-bicarbonate buffer, pH 9.6), washed, and blocked with 1% BSA in PBS. After blocking, plates were incubated with the indicated concentrations of biotinylated primary antibody in 0.1% BSA/PBS for 1h at room temperature. Plates were washed, and then incubated with streptavidin-HRP in 0.1% BSA/PBS for 45 min. Plates were then washed and developed with OPD, and absorbance was measured at 490 nm. Binding curves were analyzed using a 4-parameter log fit.

Another experiment concerns the target T2, 4R tau fibrils (UniProt P10636-6 1-383, limits assumed).
T2 construct: Fibrils pelleted at 100,000 x g and coated on ELISA plates; also called fibrillar tau; recombinant tau fibrils of 4-repeat tau
The experiment in a line: ELISA, biotinylated antibody on plate-coated preformed fibrils, 4-parameter fit. As for the experimental part:
as §1

Experiment [3] concerns the target T3, recombinant human 4R0N tau (human, UniProt P10636 2-758).
T3 construct: also called P10636-6
Put plainly: SPR, Biacore T200, antibody captured on anti-human Fc, tau as analyte, 1:1 fit. As for the experimental part: Target binding analysis was performed using a Biacore T200 to compare the binding affinity of humanized 3D6 variants to recombinant human 4R0N tau. Anti-Human Fc antibody was immobilized on sensor chip CM3 via amine coupling, and humanized 3D6 variants were captured to equivalent levels. […] Data was blank subtracted to both an irrelevant sensor not containing antibody and 0 nM analyte concentration. Analysis was performed using a global 1:1 fit with Biacore Evaluation software.
For orientation: In SPR one partner is held on a chip, and binding of the other changes the refractive index at the surface.

The target in the next experiment is recombinant human tau (human, UniProt P10636 1-383). Put plainly: SPR (Biacore T200): antibody captured on an anti-mouse chip, recombinant human tau 10-0.14 nM as analyte, global 1:1 fit. As for the experimental part:
Methods: SPR analysis was performed using a Biacore T200 to determine the binding kinetics of murine antibodies to recombinant human tau. To prepare a sensor surface, anti-mouse antibody (GE Life Sciences) was immobilized on sensor chip CM5 via amine coupling, and antibody was captured at a level to ensure maximum binding of 50 RU. Various concentrations of recombinant tau ranging from 10-0.14 nM were passed over the captured ligand at a flow rate of 50 μL/min in running buffer (HBS+0.05% P-20, 1 mg/mL BSA), for 180 sec association and 900 sec dissociation. Data were double-referenced to both an irrelevant sensor not containing antibody ligand, and 0 nM analyte concentration to account for the dissociation of ligand from the capture moiety. Data was then analyzed using a global 1:1 fit.

T3 sequence (P10636 other isoform, or with tags, fused parts or gaps limits assumed): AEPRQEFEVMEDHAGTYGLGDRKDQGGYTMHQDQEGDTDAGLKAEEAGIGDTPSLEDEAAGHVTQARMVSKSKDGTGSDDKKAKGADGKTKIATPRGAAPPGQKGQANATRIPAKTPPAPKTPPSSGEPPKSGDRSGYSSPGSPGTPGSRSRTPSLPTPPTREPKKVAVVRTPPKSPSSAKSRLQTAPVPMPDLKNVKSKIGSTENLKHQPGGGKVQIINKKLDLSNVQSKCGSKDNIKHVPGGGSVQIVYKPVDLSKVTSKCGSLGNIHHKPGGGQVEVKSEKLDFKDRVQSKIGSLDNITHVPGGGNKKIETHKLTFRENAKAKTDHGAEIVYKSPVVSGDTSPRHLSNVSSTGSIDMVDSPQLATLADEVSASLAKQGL
recombinant human tau, sequence (P10636 other isoform, or with tags, fused parts or gaps): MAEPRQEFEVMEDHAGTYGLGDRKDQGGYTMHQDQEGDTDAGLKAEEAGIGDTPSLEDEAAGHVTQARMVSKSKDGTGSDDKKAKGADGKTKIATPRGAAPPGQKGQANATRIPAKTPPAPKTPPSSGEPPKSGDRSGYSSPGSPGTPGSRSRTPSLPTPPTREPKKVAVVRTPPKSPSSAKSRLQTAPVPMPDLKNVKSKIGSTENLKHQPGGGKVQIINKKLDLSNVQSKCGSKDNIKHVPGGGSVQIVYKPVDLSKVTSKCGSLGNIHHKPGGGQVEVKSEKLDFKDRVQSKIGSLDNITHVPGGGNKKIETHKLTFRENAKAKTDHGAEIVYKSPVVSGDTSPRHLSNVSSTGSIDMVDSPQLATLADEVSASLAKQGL
T1 sequence (P10636 other isoform, or with tags, fused parts or gaps limits assumed, chain 1 of 2): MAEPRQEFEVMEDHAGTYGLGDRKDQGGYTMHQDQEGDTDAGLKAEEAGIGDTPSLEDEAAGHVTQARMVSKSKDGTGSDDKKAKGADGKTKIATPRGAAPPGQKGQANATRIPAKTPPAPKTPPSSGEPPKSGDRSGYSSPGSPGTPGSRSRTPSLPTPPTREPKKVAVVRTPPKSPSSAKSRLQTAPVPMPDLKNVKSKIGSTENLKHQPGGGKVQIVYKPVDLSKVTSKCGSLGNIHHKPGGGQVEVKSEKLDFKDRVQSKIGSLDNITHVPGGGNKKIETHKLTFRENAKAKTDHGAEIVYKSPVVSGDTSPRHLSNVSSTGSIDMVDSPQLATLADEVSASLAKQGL
T1 sequence (P10636 other isoform, or with tags, fused parts or gaps limits assumed, chain 2 of 2): as the sequence (P10636 other isoform, or with tags, fused parts or gaps) above
T2 sequence (P10636 other isoform, or with tags, fused parts or gaps limits assumed): as the sequence (P10636 other isoform, or with tags, fused parts or gaps) above
biotinylated recombinant tau, sequence (P10636 other isoform, or with tags, fused parts or gaps limits assumed): as the sequence (P10636 other isoform, or with tags, fused parts or gaps) above

B1: hu3D6VHv1bA11/hu3D6VLv2 (antibody, V domains shown)
VH: EVQLVQSGAEVVKPGATVKISCKASGFNIKDYYLHWVRQRPGQGLEWIGWIDPENGDTVYDPKFQGRATITADTSTDTAYLQLGSLTSEDTAVYFCSTLDFWGQGTLVTVSS
VL: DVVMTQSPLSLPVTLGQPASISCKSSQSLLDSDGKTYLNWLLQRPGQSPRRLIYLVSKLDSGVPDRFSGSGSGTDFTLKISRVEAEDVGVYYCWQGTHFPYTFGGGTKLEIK
notes: Humanized antibody expressed in 293 cells, captured by anti-human Fc; also called parental hu3D6VHv1bA11/hu3D6VLv2; h3D6Hu5 heavy chain variable region
As usually defined, the IC50 is the concentration needed to halve the response being measured. For orientation: EC50 (read off the curve) means the concentration that produces a half-maximal response. A high value points to a less potent agent. In general, EC50 refers to the midpoint of the concentration-response curve. Read a high EC50 as weaker potency. Usually Kd stands for the equilibrium constant for the complex coming apart. One may read the koff as the first-order rate constant of dissociation. As usually defined, the kon is the second-order rate constant of association. Turning to B1, the IC50 in experiment [1] was 0.565 nM. Further, the “EC50 (read off the curve)” value in experiment [2] is approximately 0.9 nM. In addition, the EC50 with 4R tau fibrils worked out at 0.237 nM. Moreover, in experiment [3], the Kd stood at 0.181 nM, the koff turned out to be 0.00074 s⁻¹ and the kon was determined as 4.17e+06 M⁻¹ s⁻¹.

B2: hu3D6VHv1bA11/L2-DIM4 (antibody, V domains shown)
VH: EVQLVQSGAEVVKPGATVKISCKASGFNIKDYYLHWVRQRPGQGLEWIGWIDPENGDTVYDPKFQGRATITADTSTDTAYLQLGSLTSEDTAVYFCSTLDFWGQGTLVTVSS
VL: DVVMTQSPLSLPVTLGQPASISCKSSQSLLDSDGKTYLNWLQQRPGQSPRRLIYLVGKRDSGVPDRFSGSGSGTDFTLKISRVEAEDVGVYYCWQGTHFPYTFGGGTKLEIK
Consider B2, for which the IC50 in experiment [1] amounted to 0.423 nM. Further, the “EC50 (read off the curve)” value in experiment [2] was approximately 0.7 nM. In the experiment with 4R tau fibrils, this molecule yielded an EC50 of 0.192 nM. Moreover, in experiment [3], the Kd was 0.0948 nM, the koff is 0.000535 s⁻¹ and the kon came out at 5.65e+06 M⁻¹ s⁻¹.

B3: 5G8 (antibody, V domains shown)
VH: EVQLQQSGAELVRSGASVRLSCTASGFNIKDYYMHWVRQRPEQGLEWIGWIDPENGDTVYAPKFQGKATMTSDTSSNTAYLHLSSLTSEDTAVYYCSPLDFWGQGTTLTVSS
VL: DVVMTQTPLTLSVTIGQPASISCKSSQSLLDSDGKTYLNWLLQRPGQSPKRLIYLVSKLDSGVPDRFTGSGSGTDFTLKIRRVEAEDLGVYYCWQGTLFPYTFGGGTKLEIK
With B3, in the experiment with recombinant human tau, the Kd worked out at 6.78 nM, the dissociation rate constant (koff) worked out at 0.00254 s⁻¹ and the kon is 375000 M⁻¹ s⁻¹.

B4: 8A4 (antibody, V domains shown)
VH: EVQLQQSGAELVRPGALVKLSCKASGFNIKDYYIHWVKQRPEQGLEWIGWIDPENGDTVYDPQFQDKANITADTSSNTAYLQLSSLTSEGTAVYYCSTLDFWGQGTTLTVSS
VL: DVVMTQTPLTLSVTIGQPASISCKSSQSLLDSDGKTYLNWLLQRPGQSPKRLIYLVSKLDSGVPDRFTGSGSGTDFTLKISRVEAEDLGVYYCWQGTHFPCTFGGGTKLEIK
Regarding B4, in the experiment with recombinant human tau, the Kd came to 3.8 nM, the koff stood at 0.00227 s⁻¹ and the kon is 599000 M⁻¹ s⁻¹.
